Data on two substances can be found in paper PMC4386032.

This test concerns the target F-actin (source not stated for this experiment: rabbit muscle or yeast) (not stated (rabbit muscle or yeast actin purified)) (UniProt P68135).

Vps1 (yeast dynamin), wild type, recombinant His tag fusion, sequence (P21576 whole entry, the tested form may be a part): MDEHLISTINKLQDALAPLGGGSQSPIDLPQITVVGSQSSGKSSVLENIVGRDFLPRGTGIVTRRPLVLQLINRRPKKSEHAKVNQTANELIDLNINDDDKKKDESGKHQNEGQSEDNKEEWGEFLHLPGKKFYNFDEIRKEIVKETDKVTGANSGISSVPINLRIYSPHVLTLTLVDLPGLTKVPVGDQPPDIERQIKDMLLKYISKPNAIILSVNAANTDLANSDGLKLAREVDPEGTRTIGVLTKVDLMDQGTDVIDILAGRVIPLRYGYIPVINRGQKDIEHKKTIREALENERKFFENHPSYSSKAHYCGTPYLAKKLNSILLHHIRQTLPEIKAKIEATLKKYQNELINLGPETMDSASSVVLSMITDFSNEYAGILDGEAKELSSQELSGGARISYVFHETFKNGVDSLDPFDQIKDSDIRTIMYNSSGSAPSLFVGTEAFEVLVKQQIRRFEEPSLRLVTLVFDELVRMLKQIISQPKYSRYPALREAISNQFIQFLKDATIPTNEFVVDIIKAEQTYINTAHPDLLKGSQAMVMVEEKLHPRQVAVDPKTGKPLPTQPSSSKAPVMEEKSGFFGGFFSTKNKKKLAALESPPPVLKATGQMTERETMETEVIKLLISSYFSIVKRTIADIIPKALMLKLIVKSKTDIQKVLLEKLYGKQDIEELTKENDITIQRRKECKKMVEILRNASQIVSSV

In the case of “Vps1 (yeast dynamin), wild type, recombinant His tag fusion (from UniProt P21576 1-704) (natural protein)”, the EM: proportion of Vps1 structures that are double rings after incubation with actin amounted to 55%, the EM: proportion of actin in bundles of three or more filaments in the presence of Vps1 was 58% and the EM: proportion of actin in bundles of two or more filaments in the presence of Vps1 (23% without) is more than 80%.
For the substance “Vps1 RR457,458EE, recombinant His tag fusion (from UniProt P21576 1-704) (natural protein)”, the EM: proportion of actin filaments in bundles of three or more in the presence of Vps1 RR-EE amounted to 8%.
